Source: publication PMC9097876 (Science Immunology, 2022)

B1: G32Q4 Fab (Fab, V domains shown)
VH: QVQLVESGGGVVQPGRSLRLSCAASGFTFSRYAMQWVRQAPGKGLEWVAVISYDGNNRYYADSVKGRFTISRDNSKNTLYLQMNSLRAEDTAVYYCARGPPGYYDSSGYYQTPEYFQHWGQGTLVTVSS
VL: QSVLTQPPSVSGAPGQRVTISCTGSSSNIGVGYDVHWYQQFPGTVPKLLIYGNSNRPSGVPDRFSGSKSGTSASLAITGLQAEDEADYYCQSYDSSLSGVVFGGGTKLTVL
B2: G32Q4 Fab (Fab, V domains shown)
VH: B1 VH
VL: B1 VL
B3: C98C7 Fab (Fab, V domains shown)
VH: EVQLVESGGGLVQPGGSLRLSCAASGITVSSNYMSWVRQAPGKGLEWVSVIYSGGSTFYADSVKGRFTISRDNSKNTLYLQMSSLRAEDTAVYYCARDLVVFGMDVWGQGTTVTVSS
VL: EIVLTQSPGTLSLSPGETATLSCRASQSVGSSYLTWYQQKPGQAPRLLIYGASSRATGIPDRFSGSGSGTDFTLTISRLEPEDFAVYYCQHYGSSPTFGQGTKVEIK
B4: C98C7 Fab (Fab, V domains shown)
VH: B3 VH
VL: B3 VL

Key:
Details in all cases: both partners purified
[1] = target: T1, SARS-CoV-2 spike receptor-binding domain (RBD), Gamma variant (SARS-CoV-2, Gamma variant (P.1), E484K | N501Y); experiment: BLI
T1 construct: not shown: His tag, C-terminal, kept

[2] = target: T2, SARS-CoV-2 spike receptor-binding domain (RBD), Delta variant (SARS-CoV-2, Delta variant (B.1.617.2), L452R | T478K); experiment: BLI
T2 construct: not shown: His tag, C-terminal, kept

[3] = target: T3, SARS-CoV-2 spike receptor-binding domain (RBD), Alpha variant (SARS-CoV-2, Alpha variant (B.1.1.7), N501Y); experiment: BLI
T3 construct: not shown: His tag, C-terminal, kept

[4] = target: T4, SARS-CoV-2 spike receptor-binding domain (RBD), Wuhan isolate (SARS-CoV-2, Wuhan, UniProt P0DTC2); experiment: BLI
T4 construct: not shown: His tag, C-terminal, kept

[5] = target: T5, SARS-CoV-2 spike receptor-binding domain (RBD), Alpha variant (SARS-CoV-2, Alpha variant (B.1.1.7), N501Y); experiment: BLI; remark: listed apart in the source
T5 construct: not shown: His tag, C-terminal, kept

[6] = target: T6, SARS-CoV-2 spike receptor-binding domain (RBD), Delta variant (SARS-CoV-2, Delta variant (B.1.617.2), L452R | T478K); experiment: BLI; remark: listed apart in the source
T6 construct: not shown: His tag, C-terminal, kept

[7] = target: T7, SARS-CoV-2 spike receptor-binding domain (RBD), Gamma variant (SARS-CoV-2, Gamma (P.1), E484K | N501Y); experiment: BLI
T7 construct: not shown: His tag, C-terminal, kept

[8] = target: SARS-CoV-2 spike hexapro, prefusion stabilized spike ectodomain trimer (SARS-CoV-2, Wuhan, UniProt P0DTC2, stabilised); experiment: cryo-EM structure

Row | Binder | koff [1] [s⁻¹] | kon [1] [M⁻¹ s⁻¹] | koff [2] [s⁻¹] | kon [2] [M⁻¹ s⁻¹] | koff [3] [s⁻¹] | kon [3] [M⁻¹ s⁻¹] | Kd [4] [nM] | Kd [5] [nM] | Kd [6] [nM] | Kd [7] [nM] | binding result [8] | Kd [2] [nM]
1 | B1 | 0.0025 | 2e+06 | 0.0062 | 1.2e+06 | 0.007 | 930000 |  |  |  |  |  | 
2 | B2 |  |  |  |  |  |  | 57 | 75 | 53 | 13 | binds | 
3 | B3 |  |  | 0.00099 | 280000 |  |  |  |  |  |  |  | 3.5
4 | B4 |  |  |  |  |  |  | 3 | 6 | 3 | 1 | binds | 
